Measurements as given in patent US20210147519A1 (Regeneron, published 2021).

Assays:
[1] = target: T1, native human complement component C1q protein purified from human serum (Quidel) (human, UniProt P02745 23-245; P02746 28-253; P02747 29-245); experiment: cell-based or functional assay
[2] = target: T1, native human complement component C1q …; experiment: cell-based or functional assay; remark: listed apart in the source
[3] = target: T1, native human complement component C1q …; experiment: cell-based or functional assay; remark: listed apart in the source
[4] = target: T2, IsdB expressed on the surface of S. aureus Wood 46 (Staphylococcus aureus); experiment: ELISA on plate-coated S. aureus Wood 46
T2 construct: whole, on cells
Description: Briefly, S. aureus Wood 46 was grown in RPMI overnight, washed in PBS and adjusted to an OD₆₀₀ of 0.25. MaxiSorp 96 well microtiter plates were coated overnight with 100 μl of S. aureus culture per well. Plates were washed and blocked with 3% BSA. […] Anti-human HRP conjugated secondary antibody was added to washed plates. Luminescence reagents (SuperSignal Pico) were then added to the wells and signal was detected in a plate reader (Victor X3 plate reader, Perkin Elmer) immediately. Luminescence values were analyzed by a four-parameter logistic equation over a 7-point response curve (GraphPad Prism) to determine the binding EC₅₀, of the antibodies.

[5] = target: T1, native human complement component C1q …; experiment: SPR Biacore, captured Ab, hC1q analyte, 25C
[6] = target: T1, native human complement component C1q …; experiment: SPR Biacore, captured Ab, hC1q analyte, 37C
[7] = target: T3, Recombinant bacterial IsdB expressed with a hexahistidine tag (IsdB-6xHis; REGN2655) (Staphylococcus aureus, UniProt A6QG30 42-613); experiment: SPR Biacore, captured Ab, IsdB-6xHis analyte, 25C
[8] = target: T3, Recombinant bacterial IsdB expressed …; experiment: SPR Biacore, captured Ab, IsdB-6xHis analyte, 37C
[9] = target: T1, native human complement component C1q …; experiment: competition ELISA, 6 nM biot-hC1q, competitor plate-coated hIgM
[10] = target: T1, native human complement component C1q …; experiment: competition ELISA, 6 nM biot-hC1q, competitor plate-coated hIgG2-k
[11] = target: T1, native human complement component C1q …; experiment: competition ELISA, 30 pM biot-hC1q, competitor plate-coated hIgG1-k
[12] = target: T1, native human complement component C1q …; experiment: competition ELISA, 30 pM biot-hC1q, competitor plate-coated hIgG3-k

T2 sequence (Q2FZF0 41-613): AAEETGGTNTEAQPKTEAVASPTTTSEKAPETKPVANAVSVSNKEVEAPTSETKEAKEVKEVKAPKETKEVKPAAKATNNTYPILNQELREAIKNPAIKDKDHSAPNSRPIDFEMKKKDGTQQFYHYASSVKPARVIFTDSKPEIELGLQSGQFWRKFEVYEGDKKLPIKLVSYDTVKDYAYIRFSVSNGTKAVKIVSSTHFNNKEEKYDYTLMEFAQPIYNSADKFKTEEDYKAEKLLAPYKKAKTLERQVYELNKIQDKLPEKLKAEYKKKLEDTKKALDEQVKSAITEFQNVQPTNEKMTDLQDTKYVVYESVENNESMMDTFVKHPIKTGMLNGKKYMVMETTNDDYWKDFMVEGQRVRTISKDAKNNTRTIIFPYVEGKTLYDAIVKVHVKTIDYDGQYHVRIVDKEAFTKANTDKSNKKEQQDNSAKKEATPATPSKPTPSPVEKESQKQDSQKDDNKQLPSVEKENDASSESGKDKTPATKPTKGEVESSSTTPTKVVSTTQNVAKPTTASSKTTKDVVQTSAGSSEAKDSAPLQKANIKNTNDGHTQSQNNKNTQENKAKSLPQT
T1 sequence (P02745 23-245 limits assumed, chain 1 of 3): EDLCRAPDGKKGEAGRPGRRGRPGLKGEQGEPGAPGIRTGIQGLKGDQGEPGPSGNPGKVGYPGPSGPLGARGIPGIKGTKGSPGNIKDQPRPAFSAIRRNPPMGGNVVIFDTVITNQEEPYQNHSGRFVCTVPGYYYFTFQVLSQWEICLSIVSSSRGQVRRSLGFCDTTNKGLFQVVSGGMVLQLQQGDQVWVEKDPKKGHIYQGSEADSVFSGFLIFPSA
T1 sequence (P02746 28-253 limits assumed, chain 2 of 3): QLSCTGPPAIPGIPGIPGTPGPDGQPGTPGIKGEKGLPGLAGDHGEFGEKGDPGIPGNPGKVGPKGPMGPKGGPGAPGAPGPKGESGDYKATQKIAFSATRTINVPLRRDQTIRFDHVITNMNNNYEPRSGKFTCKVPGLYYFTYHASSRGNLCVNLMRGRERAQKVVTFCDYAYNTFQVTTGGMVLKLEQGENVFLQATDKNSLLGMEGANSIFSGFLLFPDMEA
T1 sequence (P02747 29-245 limits assumed, chain 3 of 3): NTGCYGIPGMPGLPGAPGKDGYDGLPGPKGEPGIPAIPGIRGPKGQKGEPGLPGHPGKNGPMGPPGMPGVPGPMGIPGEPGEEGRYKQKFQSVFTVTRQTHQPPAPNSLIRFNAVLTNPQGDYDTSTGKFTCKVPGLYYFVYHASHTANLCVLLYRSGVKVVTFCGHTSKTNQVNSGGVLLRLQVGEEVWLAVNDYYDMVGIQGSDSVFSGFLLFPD
T3 sequence (A6QG30 42-613, tags left off): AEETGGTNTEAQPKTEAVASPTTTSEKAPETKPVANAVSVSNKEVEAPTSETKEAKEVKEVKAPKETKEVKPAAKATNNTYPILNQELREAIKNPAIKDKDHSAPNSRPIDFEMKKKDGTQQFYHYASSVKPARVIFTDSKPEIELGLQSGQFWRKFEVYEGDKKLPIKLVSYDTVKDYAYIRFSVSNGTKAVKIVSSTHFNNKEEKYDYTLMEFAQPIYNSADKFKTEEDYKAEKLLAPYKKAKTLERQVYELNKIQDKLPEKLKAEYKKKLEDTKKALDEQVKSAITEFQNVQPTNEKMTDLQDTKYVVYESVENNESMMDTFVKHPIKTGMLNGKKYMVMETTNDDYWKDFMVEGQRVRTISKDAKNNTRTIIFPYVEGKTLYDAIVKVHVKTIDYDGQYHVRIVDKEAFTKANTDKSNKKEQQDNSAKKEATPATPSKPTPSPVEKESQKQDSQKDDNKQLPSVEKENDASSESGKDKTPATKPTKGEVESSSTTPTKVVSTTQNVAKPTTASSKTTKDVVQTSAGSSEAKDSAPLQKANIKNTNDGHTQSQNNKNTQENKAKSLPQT

B1: H1H20632D (bispecific antibody, V domains shown)
VH 1: EVQLVESGGGLVQPGRSLRLSCTTSGFTFDDYAMHWVRQVPGQGLEWVAGLSWNSDTIGYADSVKGRFTISRDNAKNSLYLQMKSLKAEDTALYYCTKDFYHSLNNWNYYYFDYWGQGTLVTVSS
VH 2: QVQLVESGGGVVQPGRSLRLSCAASGFTFSSYGMHWVRQAPGKGLEWVAVIWYDGSNKNYADSVKGRFTISRDSSKNTLYLQMNSLRAEDTAVYYCARENSEGYYYGMDVWGQGTTVTVSS
VL: not shown
notes: also called anti-IsdB x anti-C1q bispecific antibody
Classical Pathway hemolysis assay % inhibition [1]: 100% | Classical Pathway hemolysis assay IC50 [1]: 1.78 nM | inhibition of CDC of Daudi cells, IC50 [M] [2]: 2.3e-07 M | inhibition of CDC of Daudi cells, Max % Inhibition [2]: ≥ 99% | C1q deposition on S. aureus Cowan I EC50 [3]: 0.529 nM | EC50 [4]: 1.08 nM | Kd [5]: 0.294 nM | koff [5]: 0.00318 s⁻¹ | kon [5]: 1.08e+07 M⁻¹ s⁻¹ | t½ [5]: 3.64 min | Kd [6]: 0.175 nM | koff [6]: 0.00871 s⁻¹ | kon [6]: 4.99e+07 M⁻¹ s⁻¹ | t1/2 [6]: 1.33 min | Kd [7]: 2.21 nM | koff [7]: 0.000255 s⁻¹ | kon [7]: 115000 M⁻¹ s⁻¹ | t½ [7]: 45.2 min | Kd [8]: 3.41 nM | koff [8]: 0.000527 s⁻¹ | kon [8]: 154000 M⁻¹ s⁻¹ | t1/2 [8]: 21.9 min | % Blockade with 600 nM bispecific Ab [9]: 97% | IC50 [9]: 18 nM | % Blockade with 600 nM bispecific Ab [10]: 88% | IC50 [10]: 23 nM | % Blockade with 30 nM bispecific Ab [11]: 90% | % Blockade with 30 nM bispecific Ab [12]: 86% | IC50 [12]: 83 nM

B2: H1H20633D (bispecific antibody, V domains shown)
VH 1: B1 VH 1
VH 2: EVQLVQSGAEVKKPGESLKISCKASGYNFNSYWIGWVRQMPGKGLEWMGIVFPGDSDTRYSPSFQGQVTISADESINTAYLQWSSLKASDTAVYYCARHTRWYLDYWGQGTLVTVSS
VL: not shown
notes: as for B1
Classical Pathway hemolysis assay % inhibition [1]: 100% | Classical Pathway hemolysis assay IC50 [1]: 1.42 nM | inhibition of CDC of Daudi cells, IC50 [M] [2]: 1.7e-08 M | inhibition of CDC of Daudi cells, Max % Inhibition [2]: ≥ 99% | C1q deposition on S. aureus Cowan I EC50 [3]: 0.203 nM | EC50 [4]: 1.31 nM | Kd [5]: 0.271 nM | koff [5]: 0.00348 s⁻¹ | kon [5]: 1.28e+07 M⁻¹ s⁻¹ | t½ [5]: 3.32 min | Kd [6]: 0.487 nM | koff [6]: 0.0127 s⁻¹ | kon [6]: 2.61e+07 M⁻¹ s⁻¹ | t1/2 [6]: 0.91 min | Kd [7]: 2.04 nM | koff [7]: 0.000247 s⁻¹ | kon [7]: 121000 M⁻¹ s⁻¹ | t½ [7]: 46.9 min | Kd [8]: 3.41 nM | koff [8]: 0.00054 s⁻¹ | kon [8]: 159000 M⁻¹ s⁻¹ | t1/2 [8]: 21.4 min | % Blockade with 600 nM bispecific Ab [9]: 96% | IC50 [9]: 6.4 nM | % Blockade with 600 nM bispecific Ab [10]: 79% | IC50 [10]: 8.2 nM | % Blockade with 30 nM bispecific Ab [11]: 93% | IC50 [11]: 1.6 nM | % Blockade with 30 nM bispecific Ab [12]: 84% | IC50 [12]: 4.8 nM

B3: H1H20637D (bispecific antibody, V domains shown)
VH 1: QLQLQESGPGLVKPSETLSLTCTVSGGSISSSSYYWVWIRQPPGKGLEWIGNIYFSGSTYYNPSLKSRVTITVDTSKNQFSLKMTSVTAADTAVYYCARPFYGSRGDYYYGMDVWGQGTTVTVSS
VH 2: EIVMTQSPATLSVSPGERATLSCTASQTINSNLAWYQQRPGQAPRLLIYGASTRATGTPARFRGSGSGTEFTLTISSLLSEDFAVYYCQNYNNWPPGGPRTFGPGTKVDIK
VL: not shown
notes: as for B1
Classical Pathway hemolysis assay % inhibition [1]: 50% | inhibition of CDC of Daudi cells, IC50 [M] [2]: > 1e-07 M | inhibition of CDC of Daudi cells, Max % Inhibition [2]: 67% | C1q deposition on S. aureus Cowan I EC50 [3]: 5 nM | EC50 [4]: 11.3 nM | Kd [5]: 1.54 nM | koff [5]: 0.0124 s⁻¹ | kon [5]: 8.01e+06 M⁻¹ s⁻¹ | t½ [5]: 0.93 min | Kd [6]: 2.33 nM | koff [6]: 0.0407 s⁻¹ | kon [6]: 1.75e+07 M⁻¹ s⁻¹ | t1/2 [6]: 0.28 min | Kd [7]: 9.34 nM | koff [7]: 0.000468 s⁻¹ | kon [7]: 50100 M⁻¹ s⁻¹ | t½ [7]: 24.7 min | Kd [8]: 17.4 nM | koff [8]: 0.00149 s⁻¹ | kon [8]: 85100 M⁻¹ s⁻¹ | t1/2 [8]: 7.78 min | % Blockade with 600 nM bispecific Ab [9]: 88% | IC50 [9]: 71 nM | % Blockade with 600 nM bispecific Ab [10]: 70% | IC50 [10]: 100 nM | % Blockade with 30 nM bispecific Ab [11]: -3% | % Blockade with 30 nM bispecific Ab [12]: -2%

B4: H1H20638D (bispecific antibody, V domains shown)
VH 1: B3 VH 1
VH 2: DIQMTQSPSSLSASIGDRVTITCRTSQDINNYLAWYQQKPGKVPKLLIFSASTLQSGVPSRFSGSGFGTDFTFIISSLQPEDVATYFCQKYDSGRGLSFGGGTKVEIK
VL: not shown
notes: as for B1
Classical Pathway hemolysis assay % inhibition [1]: 24% | inhibition of CDC of Daudi cells, IC50 [M] [2]: 1e-07 M | inhibition of CDC of Daudi cells, Max % Inhibition [2]: ≥ 99% | C1q deposition on S. aureus Cowan I EC50 [3]: 2.55 nM | EC50 [4]: 10.4 nM | Kd [5]: 1.28 nM | koff [5]: 0.00511 s⁻¹ | kon [5]: 4.01e+06 M⁻¹ s⁻¹ | t½ [5]: 2.26 min | Kd [6]: 1.98 nM | koff [6]: 0.011 s⁻¹ | kon [6]: 5.53e+06 M⁻¹ s⁻¹ | t1/2 [6]: 1.05 min | Kd [7]: 10.8 nM | koff [7]: 0.000498 s⁻¹ | kon [7]: 46200 M⁻¹ s⁻¹ | t½ [7]: 23.2 min | Kd [8]: 17.8 nM | koff [8]: 0.00144 s⁻¹ | kon [8]: 80900 M⁻¹ s⁻¹ | t1/2 [8]: 8.03 min | % Blockade with 600 nM bispecific Ab [9]: 28% | % Blockade with 600 nM bispecific Ab [10]: 33% | % Blockade with 30 nM bispecific Ab [11]: -30% | % Blockade with 30 nM bispecific Ab [12]: -25%

B5: H1H20642D (bispecific antibody, V domains shown)
VH 1: B3 VH 1
VH 2: EVQLVESGGGLVQPGGSLRLSCAASGFTFSNYEMNWVRQAPGKGLDWVSYISTSGSVIYYADSVKGRFTISRDNAKNSLYLEMNSLRAEDTAVYYCARGYDFWSGSDYYYGMDVWGQGTTVTVSS
VL: not shown
notes: as for B1
Classical Pathway hemolysis assay % inhibition [1]: 99% | Classical Pathway hemolysis assay IC50 [1]: 0.106 nM | inhibition of CDC of Daudi cells, IC50 [M] [2]: 1e-08 M | inhibition of CDC of Daudi cells, Max % Inhibition [2]: ≥ 99% | C1q deposition on S. aureus Cowan I EC50 [3]: 0.00586 nM | EC50 [4]: 8.57 nM | Kd [5]: 0.0114 nM | koff [5]: 0.000196 s⁻¹ | kon [5]: 1.72e+07 M⁻¹ s⁻¹ | t½ [5]: 58.9 min | Kd [6]: 0.0501 nM | koff [6]: 0.000412 s⁻¹ | kon [6]: 8.23e+06 M⁻¹ s⁻¹ | t1/2 [6]: 28 min | Kd [7]: 8.26 nM | koff [7]: 0.000501 s⁻¹ | kon [7]: 60700 M⁻¹ s⁻¹ | t½ [7]: 23 min | Kd [8]: 16.7 nM | koff [8]: 0.00141 s⁻¹ | kon [8]: 84600 M⁻¹ s⁻¹ | t1/2 [8]: 8.19 min | % Blockade with 600 nM bispecific Ab [9]: 72% | IC50 [9]: 3.9 nM | % Blockade with 600 nM bispecific Ab [10]: 80% | IC50 [10]: 5 nM | % Blockade with 30 nM bispecific Ab [11]: 71% | IC50 [11]: 0.11 nM | % Blockade with 30 nM bispecific Ab [12]: 96% | IC50 [12]: 0.37 nM

B6: H1H20641D (bispecific antibody, V domains shown)
VH 1: B3 VH 1
VH 2: QVQLVESGGGVVQPGRSLRLSCAASGFTFSNYGMHWVRQAPGKGLEWLAVIYYDGIKRYYGDSVQGRFIISRDNSKNTLYLQMNSLRDEDTAVYYCARAFSAAGPYNYYYAMDVWGQGTTVTVSS
VL: not shown
notes: as for B1
Classical Pathway hemolysis assay % inhibition [1]: 0% | inhibition of CDC of Daudi cells, IC50 [M] [2]: > 1e-06 M | inhibition of CDC of Daudi cells, Max % Inhibition [2]: 33% | C1q deposition on S. aureus Cowan I EC50 [3]: 1.29 nM | EC50 [4]: 10.3 nM | Kd [5]: 0.154 nM | koff [5]: 0.00068 s⁻¹ | kon [5]: 4.38e+06 M⁻¹ s⁻¹ | t½ [5]: 17.1 min | Kd [6]: 0.18 nM | koff [6]: 0.00027 s⁻¹ | kon [6]: 1.5e+06 M⁻¹ s⁻¹ | t1/2 [6]: 42.9 min | Kd [7]: 6.02 nM | koff [7]: 0.000438 s⁻¹ | kon [7]: 72800 M⁻¹ s⁻¹ | t½ [7]: 26.4 min | Kd [8]: 14.7 nM | koff [8]: 0.00141 s⁻¹ | kon [8]: 95900 M⁻¹ s⁻¹ | t1/2 [8]: 8.19 min | % Blockade with 600 nM bispecific Ab [9]: 14% | % Blockade with 600 nM bispecific Ab [10]: 19% | % Blockade with 30 nM bispecific Ab [11]: -17% | % Blockade with 30 nM bispecific Ab [12]: -13%
